Results from article PMC13483476 (2026).

Molecular target: 5768-p27 V3 peptide (HIV-1 clade B isolate 5768-p27)
Experiment: SPR

B1: 19b antigen-binding fragment (Fab) (Fab, V domains shown)
VH: EVQLVQSGGALIQPGGSLRLSCAASGFTFVDYAMSWVRQAPGKGLQWVSTIIGSGADTYYTDSVKGRFTISRDNSNNTVHLQMNSLRADDTALYYCVRGVFDLWGQGTLVTVSS
VL: DIVLTQSPPSLSASVGDRVTITCQASQDISDHLSWFQQKPGKAPKLLVYGVSSLEAGVPSRFSVSGSGTHFTFTVNGLQPEDLATYFCQQYDDLPWTFGPGTVVEVK
Question: How did the koff turn out when B1 was run?
Answer: 0.000147 s⁻¹
